Source: patent US12023367B2, “Immunomodulation for the long term prevention and treatment of autoimmune diseases and foreign tissue rejection” (University of Louisville Research Foundation, Inc., priority 2015, dated 2024)

Key:
C57BL/6 mice = assay: Mixed hematopoietic allogeneic chimerism after bone marrow transplantation, 100 cGy total body irradiation, with cyclophosphamide; details: mouse, in vivo
Procedure: C57BL/6 mice were subjected to 100 cGy total body irradiation followed by intravenous transplantation of 30×10^6 unmodified (BMC) or the combination of SA-FasL and SA-IL-2 (mFasL/IL-2-BMC) one day later. […] All groups were treated i.p. with rapamycin (2 mg/kg) daily for 10 doses starting on day 6 pot-transplantation. The test group was also treated starting on day 6 post-transplantation with both soluble SA-FasL (sFasL; 500 ng/daily for 15 doses) and IL-2 (25,000 IU/daily for 7 doses). Percent donor chimerism at various times post-transplantation was assessed using peripheral blood lymphocytes with antibodies against donor class I MHC molecule in flow cytometry.
The tissues were, processed into single cell suspension, stained with antibodies to the indicated cell surface markers, and analyzed using flow cytometry.

avidin = avidin (Gallus gallus, UniProt P02701); details: cited from earlier work
streptavidin = streptavidin (Streptomyces avidinii, UniProt P22629); details: cited from earlier work
Sequence of streptavidin (P22629 25-183): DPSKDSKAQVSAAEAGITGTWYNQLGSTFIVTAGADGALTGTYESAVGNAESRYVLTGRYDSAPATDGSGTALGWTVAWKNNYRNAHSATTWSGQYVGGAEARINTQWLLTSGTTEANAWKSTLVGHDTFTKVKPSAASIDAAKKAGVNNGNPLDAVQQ

[1] = system: STZ diabetic C57BL/6 mice; assay: Allogeneic islet transplantation under the kidney capsule (BALB/c-to-C57BL/6); format: in vivo
Procedure: FIG. 1. Systemic immunomodulation with soluble SA-FasL synergizes with SA-FasL-engineered islets for long-term survival. BALB/c islets were engineered with SA-FasL (mSA-FasL) or SA control (mSA) proteins and transplanted under the kidney capsule of STZ diabetic C57BL/6 mice. Soluble (s)SA-FasL was administered i.p. at 2-5 μg/mouse on days 1, 3, 5, 7 post-transplantation. In selected groups rapamycin was used at 0.2 mg/kg daily for 15 days starting the day of transplantation.
Treatment with soluble SA-FasL only under a short course of rapamycin was also effective, achieving >80% graft survival.

[2] = system: NHP (rhesus monkey) PBMCs; assay: Apoptosis of NHP PBMC T cells cultured with SA-FasL (Annexin V, flow cytometry); format: cell-based; details: Teff (CD3+CD28-Fas+) or T central (CD3+CD28+Fas+) memory; PBMCs from 3 NHPs
Procedure: FIG. 3. SA-FasL induces apoptosis in nonhuman primate (NHP) Teff cells. NHP (rhesus monkey) PBMCs were cultured with SA-FasL and apoptosis was assessed using Annexin V by gating on CD3^+ T cells. Cells incubated with SA served as controls. Data is representative of PBMCs from 3 NHPs.
Inasmuch as individuals with onset of autoimmunity have a large pool of activated and memory T cells, we asked if SA-FasL is capable of inducing apoptosis in such cells. For this purpose, we used nonhuman primate (NHP) peripheral blood lymphocytes (PBMCs). The PBMCs from 3 different NHPs were incubated with SA-FasL protein and apoptosis was assessed using flow cytometry.

[3] = system: C57BL/6 recipients of allogeneic BALB/c hearts; assay: Cardiac allograft survival, BALB/c-to-C57BL/6 model; format: in vivo, mice; details: IL-2 7 doses or SA-FasL 15 doses i.p., no other manipulation
Description: We next tested if SA-FasL as a biologic can work as an immunomodulator to prevent rejection of vascularized solid grafts. Heart transplantation from BALB/c into C57BL/6 mice was used as a stringent allogeneic heart graft model.

[4] = system: STZ diabetic C57BL/6 mice; assay: Intraportal allogeneic islet transplantation (BALB/c-to-C57BL/6), soluble SA-FasL; format: in vivo
Procedure: FIG. 2. Survival of allogeneic islets transplanted intraportally with different treatment protocols. BALB/c islets were engineered with SA-FasL protein and transplanted intraportally into STZ diabetic C57BL/6 mice. Rapa was used daily at 0.2 mg/kg for 15 doses starting on day of transplantation. Soluble (s)FasL was used at the indicated dose and regimens.
To further establish SA-FasL as a soluble biologic, we tested its immunomodulatory capacity for the prevention of allogeneic islets transplanted using a more stringent model of intraportal islet transplantation. The rationale for this model is twofold. First, intraportal islet transplantation is the only site practiced in the clinic. Second, intraportal islet transplantation provides a much more stringent model as compared to subrenal islet transplantation. […] Therefore, we used this model to test if SA-FasL can be developed as a soluble biologic for the prevention and treatment of type I diabetes and foreign graft rejection.

[5] = system: STZ diabetic C57BL/6 mice; assay: Intraportal allogeneic islet transplantation, SA-FasL and IL-2; format: in vivo; details: soluble SA-FasL as monotherapy
Procedure: BALB/c islets were transplanted intraportally into STZ diabetic age-matched males and females C57BL/6 mice.
These islets were then immediately transplanted intraportally into diabetic mice (450-550 islets/mouse). Mice were then treated with the indicated proteins and doses. Animals were monitored for diabetes, and those with two consecutive daily measurements of ≥250 mg/dl blood glucose level were considered diabetic and confirmation of graft failure.

Female NOD mice = assay: Prevention of type 1 diabetes in NOD mice; format: in vivo
Procedure: FIG. 5. Systemic treatment with SA-FasL protein delays the onset and incidence of Type 1 Diabetes in NOD. Female NOD mice were treated with the indicated agents at 10-week of age. Mice were then monitored for hyperglycemia by urine glucose test, which was confirmed by a blood glucose test. Mice with >200 mg/dl blood glucose levels were considered diabetic. Soluble (s)SA-FasL in PBS was used at 500 ng/injection intraperitoneally daily for 30 days. […] Female mice without any treatment were used as controls. In the SA-FasL only treatment group, 3 diabetic mice were treated with an additional 10 daily doses (black arrows) of SA-FasL soon after incidence of diabetes, resulting in temporary remission of hyperglycemia in ⅔ of those mice.
Inasmuch as antigen-experienced cells express Fas receptor on their surface, systemic treatment with SA-FasL has potential to eliminate such cells and control/reverse T1D without a major effect on quiescent T cell repertoire. This notion was tested by treating 10-wk female NOD mice daily with 500 ng SA-FasL protein for 30 days. […] We next asked the question if SA-FasL will work in synergy with IL-2. […] Indeed, T regulatory cells express FasL on their surface and control T effector responses by direct elimination via Fas receptor or indirectly by eliminating Fas-expressing DCs.

Sequence of avidin (P02701 25-152): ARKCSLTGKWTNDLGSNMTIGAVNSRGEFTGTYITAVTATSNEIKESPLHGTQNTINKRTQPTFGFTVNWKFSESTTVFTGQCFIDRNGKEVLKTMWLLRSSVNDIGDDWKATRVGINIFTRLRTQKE

O=P1(N(CCCl)CCCl)NCCCO1 (stereo not shown) [cyclophosphamide]
establishment of mixed hematopoietic allogeneic chimerism (C57BL/6 mice): acted synergistically

O=C(O)CCCC[C@@H]1SC[C@@H]2NC(=O)N[C@@H]21 [biotin]
affinity for avidin (avidin): 10^15 M^−1 | affinity for streptavidin (streptavidin): 10^13 M^−1

B1: SA-FasL: chimeric protein of core streptavidin and the extracellular domain of FasL (rat FasL without metalloproteinase site); used unbound, in soluble form (protein)
chain: RSDYKDDDDKGTITGTWYNQLGSTFIVTAGADGALTGTYESAVGNAESRYVLTGRYDSAPATDGSGTALGWTVAWKNNYRNAHSATTWSGQYVGGAEARINTQWLLTSGATEANAWKSTLVGHDTFTKVKPSAASSGGGGSGGGGSGEFIANPSTPSETKKPRSVAHLTGNPRSRSIPLEWEDTYGTALISGVKYKKGGLVINEAGLYFVYSKVYFRGQSCNSQPLSHKVYMRNFKYPGDLVLMEEKKLNYCTTGQIWAHSSYLGAVFNLTVADHLYVNISQLSLINFEESKTFFGLYKL
time of delayed rejection ([1]; soluble SA-FasL 2-5 μg/mouse i.p. on days 1, 3, 5, 7, SA-FasL-islet grafts): ~70 days | recipients with delayed rejection of allogeneic SA-FasL-islet grafts (fraction) ([1]; soluble SA-FasL 2-5 μg/mouse i.p. on days 1, 3, 5, 7 post-transplantation, SA-FasL-engineered BALB/c islets under kidney capsule): ⅛ | graft survival ([1]; soluble SA-FasL only, under a short course of rapamycin): > 80% | apoptosis of T cells [2]: Almost all T cells expressing Fas underwent apoptosis | effect on cardiac graft survival, monotherapy [3]: moderate prolongation of the grafts | islet graft survival ([4]; 4 doses of SA-FasL (2-5 μg/injection) i.v. or i.p. on days 1, 3, 5, 7, SA-FasL-engineered islets, intraportal): All BALB/c islets engineered with SA-FasL protein survived | mice that rejected the graft ([4]; soluble FasL 1 μg injection daily for 20 days from day of transplantation, no islet engineering, intraportal): one out of six | day of graft rejection post-transplantation ([4]; soluble FasL 1 μg injection daily for 20 days, the one rejecting mouse): 80 days | toxicity ([4]; soluble biologic at therapeutic doses): without toxicity | allogeneic islets whose rejection was prevented [5]: ~60% | toxicity (Female NOD mice; 500 ng SA-FasL daily for 30 days): did not observe any sign of SA-FasL toxicity | onset and incidence of T1D vs controls (Female NOD mice; 500 ng SA-FasL daily for 30 days, 10-wk female NOD): significantly delayed the onset and incidence of T1D | temporary remission of hyperglycemia (fraction of mice) (Female NOD mice; 3 diabetic mice given additional 10 daily doses of SA-FasL soon after incidence of diabetes): ⅔
